The text below walks through data of publication doi:10.1101/284836.

In data set [1] the test system is EcCRP-HIS (Escherichia coli). Kind of data set: EMSA. For orientation: Mobility shift assays separate free from complexed probe on a gel.
Data set [2] has as its system HiCRP-HIS (Haemophilus influenzae). Kind of data set: EMSA.

Regarding pilA promoter (CRP-S), Fig. 3 bait, in data set [1], the binding signal came out at 30 % shifted.

In the case of pilA-N promoter (CRP-N), Fig. 3 bait, the values for the binding signal in data set [1] and in data set [2] were 77 % shifted and 6 % shifted, respectively.
